The results in this text go back to patent US20230076063.

For data set [1], the system named is MamA DNA methyltransferase (Mycobacterium tuberculosis). Kind of data set: cell_activity. The note with it: SMRT sequencing kinetics; mostly fully methylated reads.
For data set [2], the system named is MamB DNA methyltransferase (Mycobacterium tuberculosis). The data set can be described thus: cell_activity. The note with it: SMRT sequencing kinetics.

In data set [1], “CTGGAG (double strand) [MamA target motif sites]” registered an activity (mean SMALR native score) of 2.14. For MamB target motif sites, the activity (mean SMALR native score) in data set [2] is 2.19.
